The results in this text go back to the Immune Epitope Database (IEDB).

The target in one experiment is HLA-A*02:06. The experiment can be described thus: IEDB peptide-MHC binding, purified MHC/competitive/radioactivity; filed as Kd, often an IC50 or EC50 that approximates it; ≥ and ≤ were set here for values at or beyond the usual limits of such assays.
The next experiment deals with HLA-A*02:03. The description is as above.
For the next experiment, the target named is HLA-A*02:02. The experiment is described as above.
The next experiment has as its target HLA-A*03:01. Nature of the experiment: IEDB peptide-MHC binding, purified MHC/direct/fluorescence; filed as Kd, often an IC50 or EC50 that approximates it; ≥ and ≤ were set here for values at or beyond the usual limits of such assays.
The target of the next experiment is HLA-B*53:01. Nature of the experiment: IEDB peptide-MHC binding, purified MHC/competitive/radioactivity; filed as Kd, often an IC50 or EC50 that approximates it; ≥ and ≤ were set here for values at or beyond the usual limits of such assays.
In the next experiment the target is HLA-A*11:01. Nature of the experiment: IEDB peptide-MHC binding, purified MHC/direct/fluorescence; filed as Kd, often an IC50 or EC50 that approximates it; ≥ and ≤ were set here for values at or beyond the usual limits of such assays. As to conditions: source organism: West Nile virus.
The next experiment addresses HLA-A*69:01. Described as above. Conditions: source organism: Burkholderia pseudomallei.
The target in another experiment is HLA-A*02:01. The description is as above. Conditions: source organism: Burkholderia pseudomallei.
The next experiment concerns the target HLA-A*24:02. Nature of the experiment: IEDB peptide-MHC binding, purified MHC/competitive/radioactivity; filed as Kd, often an IC50 or EC50 that approximates it; ≥ and ≤ were set here for values at or beyond the usual limits of such assays. Conditions: source organism: Dengue virus 1 Brazil/97-11/1997.
Where [1] appears, read: source organism: Vaccinia virus WR.
[2] abbreviates: source organism: Mammarenavirus juninense.
Setting [3] is: source organism: Dengue virus 1 Brazil/97-11/1997.
[4] abbreviates: source organism: SARS coronavirus Tor2.

The Kd is the free concentration of one partner at which half of the binding sites on the other are occupied at equilibrium, for simple one-to-one binding. Regarding IAGGVCYYLL, the values for the Kd in the experiment with HLA-A*02:06 (setting [1]), with HLA-A*02:03 (setting [1]) and in the experiment with HLA-A*02:02 (setting [1]) were 656 nM, 14600 nM and 4580 nM, respectively.
For NIKISLNEIL, in that order: 557 nM, 1390 nM and 705 nM.
TSLGLLYTV: the Kd with HLA-A*02:06 (setting [2]) came out at 4.17 nM; with HLA-A*02:03 (setting [2]), 405 nM; with HLA-A*02:02 (setting [2]) it was 933 nM.
With IMKQAASMK, the Kd with HLA-A*03:01 (source organism: Giardia lamblia ATCC 50803) is 63.5 nM.
As to TIDAINKCV, the Kd with HLA-A*02:06 (setting [1]) was 406 nM; in the experiment with HLA-A*02:03 (setting [1]), 634 nM; with HLA-A*02:02 (setting [1]) it was 90.1 nM.
On to TPEGEVGAI, for which the dissociation constant Kd with HLA-B*53:01 (setting [3]) was ≥ 40200 nM.
Take HQRRLVKLL: the Kd with HLA-A*02:06 (setting [1]) was ≥ 21300 nM; with HLA-A*02:03 (setting [1]) it was 1680 nM; in the experiment with HLA-A*02:02 (setting [1]), 15900 nM.
For LTKDRKMLEL, in that order: ≥ 20800 nM, 133 nM and 7700 nM.
In the case of ALVCYIVMPV, the Kd was determined as 2.92 nM in the experiment with HLA-A*02:06 (setting [4]), 4.4 nM in the experiment with HLA-A*02:03 (setting [4]) and 1.2 nM with HLA-A*02:02 (setting [4]).
For LVIRNEVNDT, the Kd is 2170 nM in the experiment with HLA-A*02:06 (setting [1]), 15200 nM with HLA-A*02:03 (setting [1]) and 5500 nM in the experiment with HLA-A*02:02 (setting [1]).
On to GVNKQTAMK, for which the Kd with HLA-A*03:01 (source organism: West Nile virus) turned out to be 600 nM; with HLA-A*11:01, 20.3 nM.
Take DAAVVFPPV: the Kd is 0.4 nM with HLA-A*69:01 and ≥ 20000 nM with HLA-A*02:01.
Regarding NTIDKSSPL, the Kd came to 18.6 nM with HLA-A*02:06 (setting [1]), 27.1 nM in the experiment with HLA-A*02:03 (setting [1]) and 82.3 nM with HLA-A*02:02 (setting [1]).
As for KILSDENYL, the dissociation constant (Kd) was determined as 27.6 nM with HLA-A*02:06 (setting [1]), 1170 nM with HLA-A*02:03 (setting [1]) and 196 nM with HLA-A*02:02 (setting [1]).
For LLNMRDLIV, in that order: 225 nM, 1.23 nM and 665 nM.
Regarding KQNKFGDSPL, the Kd was 5080 nM with HLA-A*02:06 (setting [1]), 216 nM in the experiment with HLA-A*02:03 (setting [1]) and 89.6 nM in the experiment with HLA-A*02:02 (setting [1]).
As for MVEYLENQL, the Kd was 3960 nM with HLA-A*02:06 (setting [1]), 6460 nM in the experiment with HLA-A*02:03 (setting [1]) and 343 nM in the experiment with HLA-A*02:02 (setting [1]).
In the same order, the values of ALVSDCAST are 311 nM, 31.1 nM and 701 nM.
For MAFDISVNA, the Kd with HLA-A*02:06 (setting [1]) came to 13.2 nM; in the experiment with HLA-A*02:03 (setting [1]) it was 15.1 nM; with HLA-A*02:02 (setting [1]) it was 191 nM.
In the case of FVEGLSGATW, the Kd with HLA-B*53:01 (setting [3]) was 14.4 nM.
For the sequence AFPQSNAVI, in the experiment with HLA-A*24:02, the Kd was 2900 nM.
On to YALCTLLHL, for which the figures for the Kd with HLA-A*02:06 (setting [4]), with HLA-A*02:03 (setting [4]) and with HLA-A*02:02 (setting [4]) were 1.53 nM, 768 nM and 1330 nM, respectively.
In the case of IIGHIGHHYI, the equilibrium dissociation constant (Kd) in the experiment with HLA-A*02:06 (setting [1]) was 1350 nM; with HLA-A*02:03 (setting [1]), 186 nM; with HLA-A*02:02 (setting [1]), 400 nM.
As to LINLVQYRIL, the figures for the equilibrium dissociation constant (Kd) with HLA-A*02:06 (setting [1]), with HLA-A*02:03 (setting [1]) and with HLA-A*02:02 (setting [1]) were 15900 nM, 2250 nM and 2120 nM, respectively.
Take AIYVFCISL: the values for the Kd with HLA-A*02:06 (setting [4]), with HLA-A*02:03 (setting [4]) and with HLA-A*02:02 (setting [4]) were 47.7 nM, 201 nM and 143 nM, respectively.
Turning to YTTMFGGVSW, the Kd with HLA-B*53:01 (source organism: Dengue virus 4 Philippines/H241/1956) is 119 nM.
Turning to IASKINNNRI, the Kd with HLA-A*02:06 (setting [1]) is 9420 nM; with HLA-A*02:03 (setting [1]), 18500 nM; in the experiment with HLA-A*02:02 (setting [1]), 732 nM.
Regarding VMFNGVTFST, the dissociation constant (Kd) with HLA-A*02:06 (setting [4]) worked out at 131 nM; with HLA-A*02:03 (setting [4]), 75.2 nM; in the experiment with HLA-A*02:02 (setting [4]) it was 0.69 nM.
